Ka data for 20 sequences are collected here from US20100233714.

Data set [1] deals with IgG Fab2 fragment (human) (Homo sapiens). Nature of the data set: filter. As to conditions: pH 6, 41 mM Na+.
The test system of data set [2] is IgG Fc fragment (human) (Homo sapiens), P01857-1. The experiment in a line: filter. The conditions noted are these: pH 6, 41 mM Na+.
The subject of data set [3] is IgG1, monoclonal human (Homo sapiens). Nature of the data set: filter. As to conditions: pH 6, 41 mM Na+.
In data set [4] the test system is IgA, monoclonal human (Homo sapiens). The experiment in a line: filter. The conditions noted are these: pH 6, 41 mM Na+.
In data set [5] the test system is IgG Fab2 fragment (mouse) (Mus musculus). The experiment in a line: filter. The conditions noted are these: pH 6, 41 mM Na+.
Data set [6] concerns IgG3, monoclonal human (Homo sapiens). The experiment in a line: filter. As to conditions: pH 6, 41 mM Na+.
In data set [7] the test system is IgG, polyclonal mixed human (Homo sapiens). Nature of the data set: filter. The conditions noted are these: pH 6, 41 mM Na+.
The test system of data set [8] is IgM, monoclonal human (Homo sapiens). The experiment in a line: filter. The conditions noted are these: pH 6, 41 mM Na+.
The test system of data set [9] is IgG, polyclonal mouse (Mus musculus). The experiment in a line: filter. The conditions noted are these: pH 6, 41 mM Na+.
For data set [10], the system named is IgG2, monoclonal human (Homo sapiens). The experiment in a line: filter. The conditions noted are these: pH 6, 41 mM Na+.
In data set [11] the test system is IgG4, monoclonal human (Homo sapiens). As to conditions: ultrafiltration, Picogreen, 37.5 mM NaCl, 3.75 mM Na citrate, pH 6.0.
Data set [12] deals with IgG3, monoclonal human (Homo sapiens). The conditions noted are these: ultrafiltration, Picogreen; 37.5 mM NaCl, 3.75 mM Na citrate, pH 6.0.
Where [13] appears, read: hexaethylene glycol (HEG, iSp18) linkers as loops.

Where two headings read alike, the source gives them in different places.

For the sequence “CCTCTTCTTTTTCTTCTCCTTTTTGGAGAAG [RAD2 (triplex 31mer)]”, the Ka in data set [1] is 6.45 log10 M-1; in [2], 5.86 log10 M-1; in data set [3], 7.04 log10 M-1; in [4], 6.9 log10 M-1; in [5], 6.71 log10 M-1; in [6] it was 6.64 log10 M-1. For the same sequence, the Ka in [7] (pH5 8.74, pH7 6.96, pH8 6.57, Table 2 pH 6 6.96) is 7.61 log10 M-1; in data set [8], 6.73 log10 M-1; in data set [9] it was 7.49 log10 M-1; in data set [10] it was 7.06 log10 M-1; in data set [11], 7.08 log10 M-1.

As for GGAAAGGTTTTTGGAAAGGTTTTTCCTTTCC [RAD6], the Ka in data set [7] (pH5 8.50, pH7 6.86, pH8 6.74, Table 2 pH 6 6.84) is 7.96 log10 M-1.

On to TTTTCGCGTGTGTGCGCGAA [RAD12], for which, in data set [7] (pH5 7.61, pH7 6.37, pH8 5.74), the Ka was 6.98 log10 M-1.

With TTTTCGCGCGTACGCGCGCGAA [RAD15], the Ka in data set [1] was 5.33 log10 M-1; in data set [3], 6.39 log10 M-1; in data set [4], 6.23 log10 M-1; in data set [5], 6.21 log10 M-1; in data set [7] (pH5 7.65, pH7 6.33, pH8 6.19) it was 7 log10 M-1; in [8], 6.19 log10 M-1. Further, the Ka was 6.35 log10 M-1 in data set [9], 6.18 log10 M-1 in data set [10], 6.13 log10 M-1 in data set [11] and 6.22 log10 M-1 in data set [12].

For the sequence CCTCTTCHEGCTTCTCCHEGGGAGAAG [RAD1], the Ka in data set [1] (setting [13]) is 5.82 log10 M-1; in [2] (setting [13]), 5.8 log10 M-1; in data set [3] (setting [13]) it was 6.38 log10 M-1; in data set [4] (setting [13]), 6.37 log10 M-1; in data set [5] (setting [13]) it was 6.38 log10 M-1; in [6] (setting [13]), 6.17 log10 M-1. Moreover, the Ka in [7] (hexaethylene glycol (HEG, iSp18) linkers as loops, ultrafiltration, pH5 7.45, pH7 6.49, pH8 6.30, Table 2 (0.15 M NaCl, 1 mM MgCl2, pH 6) 7.01) is 6.51 log10 M-1; in data set [8] (setting [13]) it was 6.32 log10 M-1; in [9] (setting [13]), 6.6 log10 M-1; in data set [10] (setting [13]), 6.51 log10 M-1.

Turning to CCTCTTCTTTTTCTTCTC [RAD20], the Ka was 6.9 log10 M-1 in data set [1]; 5.96 log10 M-1 in [2]; 7.34 log10 M-1 in data set [3]; 7.53 log10 M-1 in data set [4]; 7.41 log10 M-1 in [5]; 6.84 log10 M-1 in data set [6]. Further, the Ka in data set [7] (pH5 8.11, pH7 7.40, pH8 6.64) is 7.98 log10 M-1; in data set [8], 7.02 log10 M-1; in data set [9] it was 8.3 log10 M-1; in data set [10] it was 7.85 log10 M-1; in data set [11] it was 7.67 log10 M-1.

For the sequence GGTTGGTTTGGTTGG [RAD13], in [7] (pH5 7.55, pH7 6.46, pH8 6.53), the Ka was 6.96 log10 M-1.

Turning to CCTCTTCCTTCTCCGGAGAAG [RAD1], the Ka in data set [11] (hexaethylene glycol (iSp18) linkers between the three segments) was 6.37 log10 M-1.

Turning to CCCTCCCTGGGCTTTTTTTGATTTTTCTTAA [RAD4], the Ka in data set [1] is 6.89 log10 M-1; in [2], 5.26 log10 M-1; in [3] it was 7.52 log10 M-1; in data set [4], 7.66 log10 M-1; in data set [5], 7.09 log10 M-1; in [6], 6.66 log10 M-1. In addition, the Ka is 8.13 log10 M-1 in [7] (pH5 8.48, pH7 7.10, pH8 7.02, Table 2 pH 6 6.89); 6.89 log10 M-1 in [8]; 7.71 log10 M-1 in data set [9]; 7.67 log10 M-1 in data set [10]; 7.13 log10 M-1 in [11].

Turning to TGGTTGGTTTTTGGAAGGATTTTTTCCTTCC [RAD3], the Ka in data set [1] is 6.97 log10 M-1; in data set [2], 6.34 log10 M-1; in data set [3], 7.45 log10 M-1; in data set [4], 7.38 log10 M-1; in data set [5] it was 7.09 log10 M-1; in data set [6], 6.69 log10 M-1. Also, the Ka in data set [7] (pH5 8.60, pH7 6.86, pH8 6.76, Table 2 pH 6 6.71) was 7.79 log10 M-1; in data set [8], 6.71 log10 M-1; in data set [9], 7.69 log10 M-1; in [10], 7.36 log10 M-1; in data set [11], 7.2 log10 M-1.

With CCTTCCTTTGGAAGGTTG [RAD23], the Ka in data set [1] is 5.64 log10 M-1; in [3] it was 6.14 log10 M-1; in [4], 6.38 log10 M-1; in data set [5], 6.33 log10 M-1; in data set [6], 5.62 log10 M-1; in [7] (pH5 7.37, pH7 6.31, pH8 6.21), 6.88 log10 M-1. Also, the Ka in data set [8] was 6.08 log10 M-1; in [9] it was 6.77 log10 M-1; in data set [10] it was 6.86 log10 M-1; in data set [11], 5.97 log10 M-1.

TTTGGTTGGTTTGGTTGG [RAD19]: the Ka in data set [7] (inosine (I) at printed positions [inosine (written G): 4,14], pH5 7.82, pH7 6.50, pH8 6.04) is 7.14 log10 M-1.

Regarding TTTTCGCGCGTTAACGCGCGAA [RAD16], the Ka was 6.23 log10 M-1 in data set [1]; 6.87 log10 M-1 in data set [3]; 6.46 log10 M-1 in [4]; 6.11 log10 M-1 in data set [5]; 7.8 log10 M-1 in data set [7] (pH5 8.22, pH7 7.25, pH8 6.79); 6.26 log10 M-1 in data set [8]. The Ka in [9] is 7.07 log10 M-1; in data set [10] it was 6.11 log10 M-1; in data set [11] it was 6.54 log10 M-1; in [12], 6.31 log10 M-1.

On to CGCGAAAACGCG [RAD22], for which the Ka in data set [7] (pH5 5.95, pH7 6.04, pH8 5.97) is 6.25 log10 M-1.

Regarding GAGAGAGTTTTTGAGAGAGTTTTTCTCTCTC [RAD7], the Ka in data set [1] is 6.68 log10 M-1; in [2], 5.99 log10 M-1; in [3] it was 7.3 log10 M-1; in data set [4], 7.33 log10 M-1; in data set [5], 6.97 log10 M-1; in data set [6] it was 6.74 log10 M-1. The Ka was 8.04 log10 M-1 in data set [7] (pH5 8.51, pH7 6.97, pH8 6.79, Table 2 pH 6 6.86); 6.89 log10 M-1 in data set [8]; 7.69 log10 M-1 in data set [9]; 7.25 log10 M-1 in data set [10]; 7.16 log10 M-1 in [11].

As to TGGGCCGGTAACGGATTACCGTAAGGTCCC [RAD11], the Ka in data set [7] (pH5 8.31, pH7 6.85, pH8 6.85, Table 2 pH 6 6.51) is 7.64 log10 M-1.

With GAGTGAGTCTCAGTTAGTTTCGATTGATTCT [RAD5], the Ka in data set [7] (pH5 8.75, pH7 7.11, pH8 6.81, Table 2 pH 6 6.82) is 8.03 log10 M-1.

In the case of TGGGCCGGTAACGGGTTACCGTAAGGTCCC [RAD10], the Ka in data set [1] is 6.43 log10 M-1; in [2], 5.92 log10 M-1; in data set [3], 7.04 log10 M-1; in data set [4] it was 6.92 log10 M-1; in data set [5], 6.76 log10 M-1; in [7] (pH5 8.41, pH7 6.81, pH8 6.72, Table 2 pH 6 6.31), 7.65 log10 M-1. Also, the Ka is 6.7 log10 M-1 in [8]; 7.53 log10 M-1 in [9]; 7.01 log10 M-1 in [10]; 7 log10 M-1 in data set [11]; 6.62 log10 M-1 in data set [12].

Take TGGAGTCTGCGCGAGTCAGCGCTCAAGATC [RAD8]: in [7] (pH5 8.41, pH7 6.86, pH8 6.84, Table 2 pH 6 6.13), the Ka was 7.85 log10 M-1.

Turning to CTCTCTCTTTTTCTCTCTCTTTTTGAGAGAG [RAD9], the Ka in data set [1] was 6.44 log10 M-1; in data set [2] it was 5.87 log10 M-1; in [3], 7.05 log10 M-1; in [4], 6.95 log10 M-1; in [5], 6.75 log10 M-1; in data set [7] (pH5 8.67, pH7 7.04, pH8 6.94, Table 2 pH 6 7.02) it was 7.74 log10 M-1. For the same sequence, the Ka in [8] is 6.79 log10 M-1; in [9], 7.46 log10 M-1; in data set [10] it was 7.05 log10 M-1; in data set [11] it was 7.06 log10 M-1; in data set [12] it was 6.62 log10 M-1.
